How the values were obtained:
native MS = target: the molecule itself; assay: native MS
[1] = target: T1, SARS-CoV nsp9 (SARS-CoV), P0C6X7; assay: native MS; details: remark: other sources report otherwise
T1 chain: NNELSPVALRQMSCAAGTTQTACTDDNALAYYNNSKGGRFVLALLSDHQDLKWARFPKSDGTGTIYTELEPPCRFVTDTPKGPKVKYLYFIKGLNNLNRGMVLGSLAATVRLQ

B1: SARS-CoV main protease M^pro with authentic ends (enzyme)
chain: SGFRKMAFPSGKVEGCMVQVTCGTTTLNGLWLDDTVYCPRHVICTAEDMLNPNYEDLLIRKSNHSFLVQAGNVQLRVIGHSMQNCLLRLKVDTSNPKTPKYKFVRIQPGQTFSVLACYNGSPSGVYQCAMRPNHTIKGSFLNGSCGSVGFNIDYDCVSFCYMHHMELPTGVHAGTDLEGKFYGPFVDRQTAQAAGTDTTITLNVLAWLYAAVINGDRWFLNRFTTTLNDFNLVAMKYNYEPLTQDHVDILGPLSAQTGIAVLDMCAALKELLQNGMNGRTILGSTILEDEFTPFDVVRQCSGVTFQ
notes: also called 3CL^pro; nsp5
stoichiometry N (native MS): 2

B2: SARS-CoV nsp9, P0C6X7 (natural protein)
chain: T1 chain
mass fraction of dimers [1]: 25% | mass fraction of monomers [1]: 75% | stoichiometry N [1]: 2

From paper PMC7078746, “Processing of the SARS-CoV pp1a/ab nsp7–10 region” (Biochemical Journal, 2020)
